Positions count from the first letter of the chain named. Names may count otherwise.
B1: N-terminally His6-tagged β′ 1-309, hydroxylamine cleavage fragment (from pTA499) (enzyme)
chain: HHHHHHMKDLLKFLKAQTKTEEFDAIKIALASPDMIRSWSFGEVKKPETINYRTFKPERDGLFCARIFGPVKDYECLCGKYKRLKHRGVICEKCGVEVTQTKVRRERMGHIELASPTAHIWFLKSLPSRIGLLLDMPLRDIERVLYFESYVVIEGGMTNLERQQILTEEQYLDALEEFGDEFDAKMGAEAIQALLKSMDLEQECEQLREELNETNSETKRKKLTKRIKLLEAFVQSGNKPEWMILTVLPVLPPDLRPLVPLDGGRFATSDLNDLYRRVINRNNRLKRLLDLAAPDIIVRNEKRMLQEAVDALLDN
B2: HMK-His6-β′(100-309), IC5-labeled (pTA133) (enzyme)
chain: MARRASVHHHHHHMERMGHIELASPTAHIWFLKSLPSRIGLLLDMPLRDIERVLYFESYVVIEGGMTNLERQQILTEEQYLDALEEFGDEFDAKMGAEAIQALLKSMDLEQECEQLREELNETNSETKRKKLTKRIKLLEAFVQSGNKPEWMILTVLPVLPPDLRPLVPLDGGRFATSDLNDLYRRVINRNNRLKRLLDLAAPDIIVRNEKRMLQEAVDALLDN
notes: also called labeled β′-fragment; IC5-labeled β′-fragment
B3: HMK-His6-β′(100-309), unlabeled (pTA133) (enzyme)
chain: B2 chain
notes: also called unlabeled β′-fragment
B4: β′1-309, untagged (pTA518) (enzyme)
chain: MKDLLKFLKAQTKTEEFDAIKIALASPDMIRSWSFGEVKKPETINYRTFKPERDGLFCARIFGPVKDYECLCGKYKRLKHRGVICEKCGVEVTQTKVRRERMGHIELASPTAHIWFLKSLPSRIGLLLDMPLRDIERVLYFESYVVIEGGMTNLERQQILTEEQYLDALEEFGDEFDAKMGAEAIQALLKSMDLEQECEQLREELNETNSETKRKKLTKRIKLLEAFVQSGNKPEWMILTVLPVLPPDLRPLVPLDGGRFATSDLNDLYRRVINRNNRLKRLLDLAAPDIIVRNEKRMLQEAVDALLDN
B5: β′60-309, untagged (pTA528) (enzyme)
chain: RIFGPVKDYECLCGKYKRLKHRGVICEKCGVEVTQTKVRRERMGHIELASPTAHIWFLKSLPSRIGLLLDMPLRDIERVLYFESYVVIEGGMTNLERQQILTEEQYLDALEEFGDEFDAKMGAEAIQALLKSMDLEQECEQLREELNETNSETKRKKLTKRIKLLEAFVQSGNKPEWMILTVLPVLPPDLRPLVPLDGGRFATSDLNDLYRRVINRNNRLKRLLDLAAPDIIVRNEKRMLQEAVDALLDN
B6: β′100-309, untagged (pTA530) (enzyme)
chain: ERMGHIELASPTAHIWFLKSLPSRIGLLLDMPLRDIERVLYFESYVVIEGGMTNLERQQILTEEQYLDALEEFGDEFDAKMGAEAIQALLKSMDLEQECEQLREELNETNSETKRKKLTKRIKLLEAFVQSGNKPEWMILTVLPVLPPDLRPLVPLDGGRFATSDLNDLYRRVINRNNRLKRLLDLAAPDIIVRNEKRMLQEAVDALLDN
B7: His6-tagged β′33-309 (pTA531) (enzyme)
chain: WSFGEVKKPETINYRTFKPERDGLFCARIFGPVKDYECLCGKYKRLKHRGVICEKCGVEVTQTKVRRERMGHIELASPTAHIWFLKSLPSRIGLLLDMPLRDIERVLYFESYVVIEGGMTNLERQQILTEEQYLDALEEFGDEFDAKMGAEAIQALLKSMDLEQECEQLREELNETNSETKRKKLTKRIKLLEAFVQSGNKPEWMILTVLPVLPPDLRPLVPLDGGRFATSDLNDLYRRVINRNNRLKRLLDLAAPDIIVRNEKRMLQEAVDALLDN
B8: His6-tagged β′60-309 (pTA532) (enzyme)
chain: B5 chain
B9: His6-tagged β′100-309 (pTA533) (enzyme)
chain: B6 chain
B10: His6-tagged β′178-309 (pTA537) (enzyme)
chain: AKMGAEAIQALLKSMDLEQECEQLREELNETNSETKRKKLTKRIKLLEAFVQSGNKPEWMILTVLPVLPPDLRPLVPLDGGRFATSDLNDLYRRVINRNNRLKRLLDLAAPDIIVRNEKRMLQEAVDALLDN
B11: His6-tagged β′200-309 (pTA538) (enzyme)
chain: QLREELNETNSETKRKKLTKRIKLLEAFVQSGNKPEWMILTVLPVLPPDLRPLVPLDGGRFATSDLNDLYRRVINRNNRLKRLLDLAAPDIIVRNEKRMLQEAVDALLDN
B12: β′260-309 with C-terminal His6 (pTA546) (enzyme)
chain: FATSDLNDLYRRVINRNNRLKRLLDLAAPDIIVRNEKRMLQEAVDALLDNHHHHHH
B13: β′1-319 wild type, untagged (pTA620) (enzyme)
chain: MKDLLKFLKAQTKTEEFDAIKIALASPDMIRSWSFGEVKKPETINYRTFKPERDGLFCARIFGPVKDYECLCGKYKRLKHRGVICEKCGVEVTQTKVRRERMGHIELASPTAHIWFLKSLPSRIGLLLDMPLRDIERVLYFESYVVIEGGMTNLERQQILTEEQYLDALEEFGDEFDAKMGAEAIQALLKSMDLEQECEQLREELNETNSETKRKKLTKRIKLLEAFVQSGNKPEWMILTVLPVLPPDLRPLVPLDGGRFATSDLNDLYRRVINRNNRLKRLLDLAAPDIIVRNEKRMLQEAVDALLDNGRRGRAITGS
B14: β′1-319 K280E (pTA613) (enzyme)
chain: B13 chain with K280E
B15: β′1-319 N266D (pTA610) (enzyme)
chain: B13 chain with N266D
B16: β′1-319 N309D (pTA619) (enzyme)
chain: B13 chain with N309D
B17: β′1-319 Q300E (pTA617) (enzyme)
chain: B13 chain with Q300E
B18: β′1-319 Y269A (pTA611) (enzyme)
chain: B13 chain with Y269A
B19: β′ mutant E301P (enzyme)
chain: B13 chain with E301P
B20: β′ mutant L299D (enzyme)
chain: B13 chain with L299D
B21: β′ mutant N274P (enzyme)
chain: B13 chain with N274P
B22: β′ mutant V272D (enzyme)
chain: B13 chain with V272D
B23: His6-HMK-β′1-300 (pTA524) (enzyme)
chain: MKDLLKFLKAQTKTEEFDAIKIALASPDMIRSWSFGEVKKPETINYRTFKPERDGLFCARIFGPVKDYECLCGKYKRLKHRGVICEKCGVEVTQTKVRRERMGHIELASPTAHIWFLKSLPSRIGLLLDMPLRDIERVLYFESYVVIEGGMTNLERQQILTEEQYLDALEEFGDEFDAKMGAEAIQALLKSMDLEQECEQLREELNETNSETKRKKLTKRIKLLEAFVQSGNKPEWMILTVLPVLPPDLRPLVPLDGGRFATSDLNDLYRRVINRNNRLKRLLDLAAPDIIVRNEKRMLQ
notes: range 1-300
B24: His6-HMK-β′1-280 (pTA523) (enzyme)
chain: MKDLLKFLKAQTKTEEFDAIKIALASPDMIRSWSFGEVKKPETINYRTFKPERDGLFCARIFGPVKDYECLCGKYKRLKHRGVICEKCGVEVTQTKVRRERMGHIELASPTAHIWFLKSLPSRIGLLLDMPLRDIERVLYFESYVVIEGGMTNLERQQILTEEQYLDALEEFGDEFDAKMGAEAIQALLKSMDLEQECEQLREELNETNSETKRKKLTKRIKLLEAFVQSGNKPEWMILTVLPVLPPDLRPLVPLDGGRFATSDLNDLYRRVINRNNRLK
notes: range 1-280

Legend:
[1] = target: T1, HMK-His6-σ70, 32P-labeled (pHMK-His6-σ70) (Escherichia coli, UniProt P00579 1-613); assay: ordered fragment ladder far-Western, 32P-σ70 probe
T1 construct: range 1-613; also called ^32P-labeled ?^70; HMK-?^70

[2] = target: T2, σ70 (C132S, C291S, C295S, S442C), labeled with Eu-DTPA-AMCA (pSigma70(442C)) (Escherichia coli, UniProt P00579 1-613); assay: electrophoretic mobility shift (EMS) assay, native gel
T2 construct: also called labeled ?^70

[3] = target: T2, σ70 (C132S, C291S, C295S, S442C), …; assay: EMS assay, competition with labeled β′-fragment
[4] = target: T3, σ70, native, untagged (pLN12) (Escherichia coli, UniProt P00579 1-613); assay: mixed with σ70 and passed over Ni-NTA (control)
T3 construct: range 1-613; also called native ?^70

[5] = target: T1, HMK-His6-σ70, 32P-labeled …; assay: far-Western of whole cell lysate, 32P-σ70 probe
[6] = target: T3, σ70, native, untagged (pLN12); assay: Ni-NTA co-immobilization, SDS-PAGE
[7] = target: T1, HMK-His6-σ70, 32P-labeled …; assay: far-Western binding, 32P-σ70 probe; grade
[8] = target: T1, HMK-His6-σ70, 32P-labeled …; assay: far-Western of β′1-319 in cell extract, normalized to Western

Binder | binding result [6] | binding result [7] | also measured
B1 | – | – | binding result [1]: binds
B2 | – | – | binding result [2]: binds
B3 | – | – | binding result [3]: binds
B4 | – | – | binding result [4]: binds; binding result [5]: binds
B5 | – | – | binding result [5]: binds
B6 | – | – | binding result [5]: binds
B7 | binds | – | –
B8 | binds | – | –
B9 | binds | – | –
B10 | binds | – | –
B11 | binds | – | –
B12 | binds | – | –
B13 | – | binds | –
B14 | – | binds | –
B15 | – | binds | –
B16 | – | binds | –
B17 | – | – | relative binding against wild type β′1-319 [8]: > 7 fold
B18 | – | binds | –
B19 | – | no binding | –
B20 | – | no binding | –
B21 | – | no binding | –
B22 | – | no binding | –
B23 | no binding | – | –
B24 | no binding | – | –

— patent US20030104423A1 (WISCONSIN ALUMNI RESEARCH FOUNDATION, published 2003)
